{
  "source": "paper PMC12809912",
  "about": "“Structural and epitope characterization of anti-DEFA5 monoclonal antibodies clones 1A8 and 4F5 for inflammatory bowel disease subtype diagnostics” (International journal of biological macromolecules, 2025)",
  "binders": {"B1": {"name": "mouse monoclonal antibody clone 1A8 (anti-DEFA5) (antibody, V domains shown)", "VH": "QVQLQQSGAELVRPGASVKMSCKALGYTFFDYEMHWMKQTPVYGLEWIGAIHPGSGDTAYNQKFKGKATLTADKSSNTAYMELSSLTSEDSAVYYCTREGTVVAPFDYWGQGTTLTVSS", "VL": "DVLMTQTPLSLPVSLGDQASISCRSSQSIVHSNGNTYLEWYLQKPGQSPKLLINKVSNRFSGVPDRFSGSGSGTDFTLKISRVEAEDLGVYYCFQGSYVPYTFGGGTKLEIK", "notes": "the print has a blank between NYKNT and PIMDTDG; Whole IgG, intact mass ~148.73 kDa; also called mAb 1A8; source: mouse hybridoma clone, purified monoclonal antibody"}, "B2": {"name": "mouse monoclonal antibody clone 4F5 (anti-DEFA5) (antibody, V domains shown)", "VH": "B1 VH", "VL": "B1 VL", "notes": "the print has a blank between NYKNT and PIMDTDG; Whole IgG, intact mass ~148.65 kDa; also called mAb 4F5; source: mouse hybridoma clone, purified monoclonal antibody"}},
  "settings_in_all_cases": "both partners purified",
  "key": {"[1]": {"target": "T1, biotinylated DEFA5 epitope peptide Biotin-RATCYCRTGRCAT (Homo sapiens, cysteine pairing not given here)", "T1 construct": "human DEFA5 residues 62-74; source: synthetic peptide", "T1 chain": "Biotin-RATCYCRTGRCAT", "assay": "SPR; Biacore 8K, Biotin-RATCYCRTGRCAT immobilised on SA chip (~95 RU), antibodies injected 7.81-125 nM, 25 C, HBS-EP+, 30 uL/min, global fit to a 1:1 binding model"}, "[2]": {"target": "T2, peptide variant of … with the N-terminal Ala61 deleted (Homo sapiens, UniProt Q01523)", "T2 construct": "also called N-terminal deletion mutant; source: synthetic peptide (GenScript, >95 % purity)", "T2 chain": "RATCYCRTGRCATR", "assay": "ELISA; indirect peptide ELISA: peptide coated at 5 ug/mL overnight at 4 C, antibody in PBST with 1 % BSA 2 h at 37 C, HRP goat anti-mouse IgG, OD 450 nm"}, "[3]": {"target": "T3, peptide No. 57 of the overlapping library, DEFA5 amino acids 61-75 (ARATCYCRTGRCATR) (Homo sapiens)", "T3 construct": "human DEFA5 amino acids 61-75; source: synthetic peptide (GenScript, >95 % purity)", "T3 chain": "ARATCYCRTGRCATR", "assay": "ELISA; indirect peptide ELISA: peptide coated at 5 ug/mL overnight at 4 C, antibody in PBST with 1 % BSA 2 h at 37 C, HRP goat anti-mouse IgG, OD 450 nm"}},
  "note": "Ends that are not written are not given here. * marks the point of attachment. Biotin = O=C1N[C@H]2[C@H](CS[C@H]2CCCCC(=O)*)N1",
  "data": [
    {"binder": "B1", "values": [
      {"measurement": "Kd", "setting": "[1]", "result": 13.5, "unit": "nM"},
      {"measurement": "stoichiometry N", "setting": "[1]", "result": 1},
      {"measurement": "binding result", "setting": "[2]", "result": "binds"},
      {"measurement": "binding result", "setting": "[3]", "result": "binds"}
    ]},
    {"binder": "B2", "values": [
      {"measurement": "Kd", "setting": "[1]", "result": 15, "unit": "nM"},
      {"measurement": "stoichiometry N", "setting": "[1]", "result": 1},
      {"measurement": "binding result", "setting": "[2]", "result": "binds"},
      {"measurement": "binding result", "setting": "[3]", "result": "binds"}
    ]}
  ]
}
